In PMC10792220 (Journal of Applied Glycoscience, 2023):

Experiments:
[1] = biological target: Aspergillus oryzae α-xylosidase AxyC, His6-tagged (Aspergillus oryzae); experiment: SEC
AxyC = biological target: T1, AxyC (Aspergillus oryzae, UniProt A0ABQ6KV83); experiment: absorbance of released p-nitrophenol at […] nm; assay type: biochemical; details: read-out: Relative activity (%) at 40 mM
T1 sequence (A0ABQ6KV83 1-654): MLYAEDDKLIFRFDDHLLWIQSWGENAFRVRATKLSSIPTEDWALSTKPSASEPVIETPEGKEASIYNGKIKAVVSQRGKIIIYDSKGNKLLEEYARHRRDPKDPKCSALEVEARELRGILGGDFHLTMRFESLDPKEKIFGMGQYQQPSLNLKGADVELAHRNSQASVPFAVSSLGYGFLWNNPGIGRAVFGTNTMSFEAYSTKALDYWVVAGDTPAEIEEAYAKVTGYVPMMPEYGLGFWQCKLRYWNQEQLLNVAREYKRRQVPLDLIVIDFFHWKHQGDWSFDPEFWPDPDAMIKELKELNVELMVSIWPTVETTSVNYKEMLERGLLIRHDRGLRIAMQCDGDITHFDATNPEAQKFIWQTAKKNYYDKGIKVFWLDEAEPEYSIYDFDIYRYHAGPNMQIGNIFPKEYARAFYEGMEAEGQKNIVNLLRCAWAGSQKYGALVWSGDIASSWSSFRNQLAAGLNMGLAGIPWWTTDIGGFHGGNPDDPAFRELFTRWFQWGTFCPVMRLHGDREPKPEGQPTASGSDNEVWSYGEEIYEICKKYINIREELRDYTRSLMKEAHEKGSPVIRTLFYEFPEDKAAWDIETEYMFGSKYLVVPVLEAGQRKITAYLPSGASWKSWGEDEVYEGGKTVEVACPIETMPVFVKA

| activity at 40000 µM (AxyC) | Molecule | stoichiometry N [1] |
| --- | --- | --- |
| – | Aspergillus oryzae α-xylosidase AxyC, His6-tagged (enzyme) | 4 |
| 84.8 ± 4.5% | OC1OC[C@@H](O)[C@H](O)[C@H]1O (stereo partly drawn) [D-xylose] | – |
